Where “and” joins values, the source holds several entries; their conditions need not be identical. Equal values may be shown once.
Columns and labels:
[1] = target: T1, human tissue factor, endogenous, on tumor cell lines (H596; TF-positive SW900) (human, UniProt P13726 33-295); test: FACS on H596 cells
T1 construct: whole, on cells; also called hTF

[2] = target: full-length human tissue factor with C-terminal RGS-His6 tag, stably expressed on CHO-K1 cells (human, UniProt P13726 33-295); test: cell-based or functional assay
[3] = target: T2, soluble human tissue factor (extracellular domain of hTF with C-terminal RGS-His6 tag) (human, UniProt P13726 33-251); test: BIAcore X, soluble hTF immobilized on CM5 chip, mAb injected
T2 construct: leader left out (range computed from the stated lengths); Expressed in HEK293, purified on Ni-agarose and by gel filtration; also called soluble hTF; recombinant soluble hTF
Method: Binding properties of anti-hTF mAbs were evaluated using BIAcore X. Briefly, a CM5 BIAcore biosensor chip was docked into the instrument and activated with 55 μl of 1:1 NHS/EDC at room temperature. The recombinant soluble hTF and BSA (10 μg/ml in 0.05 M acetate buffer, pH 4.5) were immobilized on the activated chips in flow cells 1 and 2, respectively. The immobilization was carried out at a flow rate of 5 μl/min until a resonance response of 1000-2000 RU was achieved. The chip was then blocked by injection of 55 μl of ethanolamine-HCl, pH 8.5 followed by 5 washes with 50 mM NaOH, 1 M NaCl. To measure the binding of anti-hTF mAbs to the soluble hTF immobilized to the chip, 30 μl of anti-hTF mAbs at varying concentrations in BIAcore running buffer (HBS-EP, Biacore AB, Uppsala, Sweden, Cat. #1001-08) were injected over the sensor surface at a flow rate of 5 μl/min. Following completion of the injection phase, dissociation was monitored in BIAcore running buffer at the same flow rate for 360 seconds. The surface was regenerated between injections using 30 μl of 50 mM NaOH-1 M NaCl. Individual sensorgrams were analyzed using BIAsimulation software.

| EC50 [1] | Coagulation (seconds), Ab 10 ug/ml [2] [s] | Kd [3] [nM] | koff [3] [s⁻¹] | kon [3] [M⁻¹ s⁻¹] | Bmax [1] | Binder |
| --- | --- | --- | --- | --- | --- | --- |
| 0.48 nM and 0.71 nM | 202 | 7.14 | 0.00312 |  |  | monoclonal anti-TF antibody TF277 (hybridoma cell line TF277, ATCC PTA-5675) (antibody, IgG1, V domains shown) VH: QVQLQQPGAELVKPGASVKLSCKTSGYTFTSYWMHWVKQRPGQGLEWIGEIDPSDSYTNYNQKFKGKATLTVDKSSSTAYMQLSSLTSEDSAVYYCTYYVNYYAMDYWGQGTSVTVSS VL: QIVLTQSPAIMSASLGEEITLTCSASSSVSYMHWYQQKSGTSPKLLIYSTSNLASGVPSRFSGSGSGTFYSLTISSVEAEDAADYYCHQWSSYPYTFGGGTKLEIK |
|  | 195 | 1.84 | 0.000364 |  |  | monoclonal anti-TF antibody TF9 (hybridoma cell line TF9, ATCC PTA-5674) (antibody, V domains shown) VH: DVKLQESGPDLVKPSQSLSLTCTVTGYSITSGYSWHWIRQFPGNKLEWMGYIHYSGSTKYNPSLKSRISITRDTSKNQFFLQLNSVTTEDTATYYCARLWSWYFDVWGAGTTVTVSS VL: NIMMTQSPSSLAVSAGEKVTMSCKSSQSVLYSSNQKNYLAWYQQKPGQSPKLLIYWASTRESGVPDRFTGSGSGTDFTLTISSVQAEDLAVYYCHQYLSSYTFGGGTKLEIK |
|  |  | 66.3 | 0.00279 | 42100 |  | monoclonal anti-TF antibody TF196 (hybridoma cell line TF196, ATCC PTA-5196) (antibody, V domains shown, Mouse hybridoma IgG) VH: QVQLKQSGPELEKPGASVKISCKASGYSFTGYNMNWVKQSNGKSLEWIGNIDPYYGGTSYNQKFKGKATLTVDKSSNTAYMHLKSLTSEDSAVYYCARDSSSWFAYWGQGTLVTVSA VL: DIQLTQSPASLSASVGETVTITCRASGNIHNYLAWYQQKQGKSPQLLVYNAKTLADGVPSRFSGSGSGTQYSLKINSLQPEDFGSYYCQHFWITPWTFGGGTKLEI |
| 0.48 nM and 1.14 nM | 190 | 0.789 | 0.000138 |  |  | monoclonal anti-TF antibody TF278 (hybridoma cell line TF278, ATCC PTA-5676) (antibody, IgG1, V domains shown) VH: EVQLQQSGAELMKPGASVKISCKATGYTFSSYWIEWVKQRPGHGLEWIGEILPGSASTKYNEKFKGKATFTADTSSNTAYMQLSSLTSEDSAVYYCARDYYYGSSYGFAYWGQGTLVTVSS VL: QAVVTQESALTTSPGETVTLTCRSSTGAVTTSNYANWVQEKPDHLFTGLIGGTNNRGPGVPARFSGSLIGDKAALTITGAQTEDEAVYFCALWYSNHWVFGGGTKLTVLG |
| 6.29 nM | 210 | 2.46 | 0.00013 |  | 58 | monoclonal anti-TF antibody TF392 (hybridoma cell line TF392, ATCC PTA-5677) (antibody, IgG1, V domains shown) VH: QVQLKESGAELMKPGASVKISCKATGYTFSSYWIEWVKQRPGHGLEWIGEILPGSGSTNYNEKFKGKATFTADTSSNTAYMQLSSLTSEDSAVYYCARDRNGYVNYFDSWGQGTTLTVSS VL: QAVVTQESALTTSPGETVTLTCRSSTGAVTTSNYANWVQEKPDHLFTGLIGGTNNRAPGVPARFSGSLIGDKAALTITGAQTEDEAIYFCALWYSNHWVFGGGTKLTVLG |
|  |  | 19.3 | 0.000191 | 9910 |  | monoclonal anti-TF antibody TF260 (hybridoma cell line TF260, ATCC PTA-5197) (antibody, V domains shown) VH: QVQLKQSGAELMKPGASVKISCKATGYTFSSYWIEWVKQRPGHGLEWIGEILPGSGSTNYNEKFKGKATFTADTSSNTAYMQLSSLTSEDSAVYYCAREDRYDGDYWGQGTTLTVS VL: QAVVTQESALTTSPGETVTLTCRSSTGAVTTSNYANWVQEKPDHLFTGLIGGTNNRAPGVPARFSGSLIGDKAALTITGAQTEDEAIYFCALWYSNHWVFGGGTKLTVLG |
